The source of these data is patent publication US20170189519A1.

What all share (conditions): remark: other sources report otherwise
Test [1] has as its target s127H1-t2-cl18long. The test is described as follows: SEC-MALS with Fab fragments, protein of fraction 3. Background: In gel filtration, larger molecules generally elute earlier.
Test [2] addresses s127H1-t2-cl18long. The test is described as follows: SEC-MALS with Fab fragments, protein of fraction 3 (ca. 110 kD alone).
Test [3] deals with s127H1-t2-cl18long.
The next test deals with 26H1. Put plainly: ELISA, coated CR6261, P. pastoris culture medium. For orientation: ELISA stands for enzyme-linked immunosorbent assay.

B1: Fab fragment of CR6261 (Fab, V domains shown)
VH: EVQLVESGAEVKKPGSSVKVSCKASGGPFRSYAISWVRQAPGQGPEWMGGIIPIFGTTKYAPKFQGRVTITADDFAGTVYMELSSLRSEDTAMYYCAKHMGYQVRETMDVWGKGTTVTVSS
VL: QSVLTQPPSVSAAPGQKVTISCSGSSSNIGNDYVSWYQQLPGTAPKLLIYDNNKRPSGIPDRFSGSKSGTSATLGITGLQTGDEANYYCATWDRRPTAYVVFGGGTKLTVLG
As for B1, the Fab fragments bound per trimer (Fab fragments) with s127H1-t2-cl18long [1] was found to be 3. In the test with s127H1-t2-cl18long [2], this molecule displayed a size of the complex formed of 215 kD.

B2: CR6261 (antibody, V domains shown)
VH: B1 VH
VL: B1 VL
For the molecule B2, the Kd (usually the free concentration of one partner at which half of the binding sites on the other are occupied at equilibrium, for simple one-to-one binding) with s127H1-t2-cl18long [3] worked out at 0.7 nM. For the same molecule, the CR6261 binding signal with 26H1 was 78800.
